Data on 25 molecules can be found in patent US20230095004 (Aptitude Medical Systems, Inc., published 2023).

T1: VEGF-165 (VEGF-A) (Homo sapiens)
T1 chain: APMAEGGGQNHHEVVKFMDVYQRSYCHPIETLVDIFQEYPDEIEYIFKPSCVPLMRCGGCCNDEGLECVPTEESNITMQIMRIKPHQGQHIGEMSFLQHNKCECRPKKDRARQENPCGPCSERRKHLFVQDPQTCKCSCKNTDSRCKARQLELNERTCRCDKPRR

B1: AMS0433 (ssRNA)
RNA: UGCAUGCAUUUUACCAGUGAGUCGGAUCUCCGCAUAUCUGCG
modifications: 2'-F all nucleotides
B2: AMS0433.0 (ssRNA)
RNA: ACCCUUGCUUGCGUAGCAUUUUACCAGUGAGUCGGAUCUC
modifications: 2'-F all nucleotides
B3: AMSB107 (ssRNA)
RNA: UGCAUGCAUUUUACCAGUGAGUCGGAUCUCCGCAUAGAUAAGCCAACAAACGUACAUUCUCUGUUAGUAUUUUCUGCG
modifications: 2'-F all
B4: AMSB107.11 (ssRNA)
RNA: UGCAUGCAUUUUCCAGUGAGUCGGAUCUCCGCAUAGAUAAGCCAACAAACGUACAUUCUCUGUUAGUAUUUUCUGCG
modifications: 2'-F all
B5: AMSB107.5 (ssRNA)
RNA: AUGCAUGCAUUUUUACCAGUGAGUCGGAUCUCCGCAUAGAUAAGCCAACAAACGUACAUUCUCUGUUAGUAUUUUCUGCG
modifications: 2'-F all
B6: AMSB107.10 (ssRNA)
RNA: UGCAUGCAUUUUUUACCAGUGAGUCGGAUCUCCGCAUAGAUAAGCCAACAAACGUACAUUCUCUGUUAGUAUUUUCUGCG
modifications: 2'-F all
B7: AMSB107.17 (ssRNA)
RNA: GCUGUACAGCUUUUACCAGUGAGUCGGAUCUCCGCAUAGAUAAGCCAACAAACGUACAUUCUCUGUUAGUAUUUUCUGCG
modifications: 2'-F all
B8: AMSB107.13 (ssRNA)
RNA: CCGGUACCGGUUUUACCAGUGAGUCGGAUCUCCGCAUAGAUAAGCCAACAAACGUACAUUCUCUGUUAGUAUUUUCUGCG
modifications: 2'-F all
B9: AMSB107.15 (ssRNA)
RNA: UGCAUCUGCAUUUUACCAGUGAGUCGGAUCUCCGCAUAGAUAAGCCAACAAACGUACAUUCUCUGUUAGUAUUUUCUGCG
modifications: 2'-F all
B10: AMSB107.8 (ssRNA)
RNA: UUUUGCAUGCAUUUUACCAGUGAGUCGGAUCUCCGCAUAGAUAAGCCAACAAACGUACAUUCUCUGUUAGUAUUUUCUGCG
modifications: 2'-F all
B11: AMSB107.2 (ssRNA)
RNA: UGCCAGUGAGUCGGAUCUCCACAGUAGAUAAGCCAACAAACGUACAUUCUCUGUUAGUAUUUUCCUGUG
modifications: 2'-F all
B12: AMSB107.4 (ssRNA)
RNA: GCAUGCUUUUACCAGUGAGUCGGAUCUCCGCAUAGAUAAGCCAACAAACGUACAUUCUCUGUUAGUAUUUUCUGCG
modifications: 2'-F all
B13: AMSB107.9 (ssRNA)
RNA: UGCAUGCAUUACCAGUGAGUCGGAUCUCCGCAUAGAUAAGCCAACAAACGUACAUUCUCUGUUAGUAUUUUCUGCG
modifications: 2'-F all
B14: AMSB107.1 (ssRNA)
RNA: UGCCAGUGAGUCGGAUCUCCGCAUAGAUAAGCCAACAAACGUACAUUCUCUGUUAGUAUUUUCUGCG
modifications: 2'-F all
B15: AMSB107.20 (ssRNA)
RNA: UGCAUGCAUUUUACCAGUGAGUCGGAUCUCCGCAUAGAUAAGCCAACAAACGUACAUUCUCUGUUAGUAUUUUCUGCG
modifications: 2'-F with LNA (L) in stems as printed
B16: AMSB107.21 (ssRNA)
RNA: UGCAUGCAUUUUACCAGUGAGUCGGAUCUCCGCAUAGAUAAGCCAACAAACGUACAUUCUCUGUUAGUAUUUUCUGCG
modifications: 2'-F with 2'-OMe in stems as printed
B17: AMSB107.18 (ssRNA)
RNA: UGCAUGCAUUUUACCAGUGAGUCGGAUCUCCGCAUAGAUAAGCCAACAAACGUACAUUCUCUGUUAGUAUUUUCUGCG
modifications: 2'-F with LNA (L) at positions as printed
B18: AMSB107.12 (ssRNA)
RNA: CUGUACAGUUUUACCAGUGAGUCGGAUCUCCGCAUAGAUAAGCCAACAAACGUACAUUCUCUGUUAGUAUUUUCUGCG
modifications: 2'-F all
B19: AMSB107.6 (ssRNA)
RNA: UGCAUGCAACCAGUGAGUCGGAUCUCCGCAUAGAUAAGCCAACAAACGUACAUUCUCUGUUAGUAUUUUCUGCG
modifications: 2'-F all
B20: AMSB107.14 (ssRNA)
RNA: UGCACUGCAUUUUACCAGUGAGUCGGAUCUCCGCAUAGAUAAGCCAACAAACGUACAUUCUCUGUUAGUAUUUUCUGCG
modifications: 2'-F all
B21: AMSB107.P40K (ssRNA)
RNA: UGCAUGCAUUUUACCAGUGAGUCGGAUCUCCGCAUAGAUAAGCCAACAAACGUACAUUCUCUGUUAGUAUUUUCUGCG
modifications: 2'-F all nucleotides; 5' 40 kDa PEG (SEQ 203 as printed in the description)
B22: AMS0433.7 (ssRNA)
RNA: CACAGAGAACUGUGUGCCAGUGAGUCGGAUCUCCGCAUAUCUGCG
modifications: 2'-F all
B23: AMS0433.8 (ssRNA)
RNA: CGUAGCAUUUUGCCAGUGAGUCGGAUCUCCGCAUAUCUGCG
modifications: 2'-F all
B24: AMS0433.m4 (ssRNA)
RNA: UGCAUGCAUUUUACCAGUGAGUCGGAUCUCCGCAUAUCUGCG
modifications: mixed 2'-F and 2'-OMe: fUfGfCfAfUfGfCfAmUmUmUmUmAmCfCfAfGfUfGfAfGfUmCfGfGfAmUfCfUfCmCmGmCmAmUmAmUmCmUmGmCmG
B25: AMS0433.m6 (ssRNA)
RNA: UGCAUGCAUUUUACCAGUGAGUCGGAUCUCCGCAUAUCUGCG
modifications: mixed 2'-F and 2'-OMe: mUmGmCmAmUmGmCmAmUmUmUmUmAmCfCfAfGfUfGfAfGfUmCfGfGfAmUfCfUfCfCfGfCfAfUfAfUfCfUfGfCfG

The first data set concerns the target T1, VEGF-165 (VEGF-A). Description: flow; PBSMCT, 37 C. Particulars: tags: recombinant; chain copies: 2; label: biotin.
For orientation: Kd means the equilibrium constant for the complex coming apart. In the case of B1, the Kd was determined as 41 pM.
On the same count and under the same terms, then B2, with 11100 pM.

Another data set deals with T2, VEGF-121 (VEGF-A) (Homo sapiens, UniProt P15692 SEQ:1-121). Description: flow; PBSMCT, 37 C. Particulars: tags: recombinant; chain copies: 2; label: biotin.
Regarding B1, the Kd was 52 pM.

In another data set the target is T3, Angiopoietin-2 (Ang2) (Homo sapiens, UniProt O15123 O15123:19-496). Description: competition; Ang2/Tie2 inhibition. To be noted: tags: His tag; R&D Systems 623-AN.
T3 sequence (O15123 19-496, one chain of several): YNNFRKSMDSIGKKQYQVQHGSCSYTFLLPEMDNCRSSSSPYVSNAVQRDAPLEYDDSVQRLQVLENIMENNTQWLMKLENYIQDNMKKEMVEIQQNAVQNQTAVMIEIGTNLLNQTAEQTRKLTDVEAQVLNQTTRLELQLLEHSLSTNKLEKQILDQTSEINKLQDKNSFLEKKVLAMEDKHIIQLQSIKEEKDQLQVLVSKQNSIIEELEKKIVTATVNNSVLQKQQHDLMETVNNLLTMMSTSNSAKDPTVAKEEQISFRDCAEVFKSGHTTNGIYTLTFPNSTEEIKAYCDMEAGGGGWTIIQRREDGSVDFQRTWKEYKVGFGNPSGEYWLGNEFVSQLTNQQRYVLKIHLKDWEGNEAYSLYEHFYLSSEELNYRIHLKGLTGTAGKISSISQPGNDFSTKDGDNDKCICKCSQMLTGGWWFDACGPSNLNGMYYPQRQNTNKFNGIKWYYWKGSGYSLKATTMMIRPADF
Broadly, the IC50 is the point on the concentration scale where inhibition reaches its midpoint. B3: the IC50 is about 100 pM.

The next data set has as its target T1, VEGF-165 (VEGF-A). Description: competition; VEGF/VEGFR2 inhibition. To be noted: tags: R&D Systems 293-VE-050; chain copies: 2.
B4: the concentration for half-maximal inhibition (IC50) is 114 pM.
Same read-out and setting: then B5, with 81 pM; and B6, with 170 pM; and B7, with 83 pM.
Same read-out and setting: then B8, with 1000 pM; and B9, with 15600 pM; and B10, with 255 pM.
B11 had an IC50 of 19400 pM.
In turn, B12 came in with a concentration for half-maximal inhibition (IC50) of 81 pM.
Consider B13, for which the IC50 came to 147 pM.
On to B14, for which the 50% inhibitory concentration (IC50) came out at 21500 pM.
The same measure, in the same setting: then B15, with 68 pM; and B16, with 63 pM.
The same measure, in the same setting: in the case of B17 it was 422 pM; in that of B18, 1030 pM; in that of B3, 73 pM.
Still for that read-out and setting: then B19, with 551 pM; and B20, with 3270 pM.

The target in the next data set is T1, VEGF-165 (VEGF-A). Briefly: competition; VEGF receptor competition. Particulars: tags: recombinant; chain copies: 2.
For B21, the IC50 turned out to be 36 pM.

The next data set has as its target T1, VEGF-165 (VEGF-A). Briefly: competition; VEGFR2 blocking ELISA, PBSMCT, 37 C. Particulars: tags: R&D Systems 293-VE-050; chain copies: 2. In general terms: An ELISA detects its analyte on a solid surface through an enzyme-linked reagent.
In turn, B22 gave an IC50 of 8230 pM.
The same measure, in the same setting: then B23, with 42900 pM.

A further data set addresses T3, Angiopoietin-2 (Ang2). Briefly: competition; Ang2/Tie2 competition (column printed Tier2). To be noted: tags: His tag; R&D Systems 623-AN.
In turn, B21 displayed an IC50 of 45 pM.

The next data set addresses T1, VEGF-165 (VEGF-A). Briefly: competition; VEGFR2 competition ELISA, 50 pM VEGF-165, 37 C. Particulars: tags: recombinant; chain copies: 2.
B24: the 50% inhibitory concentration (IC50) stood at 40 pM.
Still for that read-out and setting: then B25, with 41 pM.

The data set is the same for the next values; noted with them: tags: recombinant; chain copies: 2; label: biotin.
B1: the IC50 was 37 pM.

The next data set has as its target T2, VEGF-121 (VEGF-A). Description: flow; bead-bound aptamer; PBSMCT 2.5 mM MgCl2 1 mM CaCl2, 37 C. Particulars: tags: recombinant; chain copies: 2; label: biotin.
For the molecule B2, the Kd is 15200 pM.
